Source: patent EP2348038A1, “Method for determining the activity of transglutaminase factor XIIIa” (PHILIPPS-UNIVERSITÄT MARBURG, priority 2010, dated 2011)

What was measured:
Format in all cases: biochemical
[1] = substrate: CC[C@H](C)[C@H](NC(=O)[C@@H](NC(=O)[C@H](CCCCN)NC(=O)[C@H](CCCCNC(=O)OCc1ccccc1)NC(=O)[C@H](CCC(=O)Nc1ccc([N+](=O)[O-])cc1)NC(=O)[C@@H](N)Cc1c[nH]cn1)C(C)C)C(=O)NCC(N)=O; assay: Cleavage of AMC substrates by activated factor XIIIa, fluorescence plate reader (Michaelis-Menten kinetics); conditions: other: AMC substrates; λEX = 380 nm, λEm = 460 nm, room temperature; enzyme ca. 0,893 Einheiten/ml
Method: (§1) Die Aliquotierung des Zymogens Faktor XIII und Aktivierung des Zymogens FXIII zu Faktor XIIIa erfolgten analog der in Beispiel 3 beschriebenen Prozedur.
(§2) Sämtliche Lösungen wurden bei Raumtemperatur aufbewahrt. Die Bestimmung der Spaltung der AMC-Substrate durch FXllla wurde mit einem Fluoreszenz-Plattenreader Safire^2 der Firma Tecan (λEX = 380 nm, λEm = 460 nm) bei Raumtemperatur durchgeführt. • 100 µl TBS-Puffer (siehe oben, der Puffer kann gegebenenfalls auch eine Aminkomponente enthalten, beispielsweise H-Gly-Ethylester oder H-Gly-Gly-Ethylester oder ein anderes Amin) • 50 µl Substratlösung • 25 µl Enzymlösung (im Messansatz ca. 0,893 Einheiten/ml)
(§3) Die Michaelis-Menten-Auftragung für die AMC-enthaltenden Substrate ist in Fig. 3 gezeigt.

[2] = substrate: CC[C@H](C)[C@H](NC(=O)[C@@H](NC(=O)[C@H](CCCCN)NC(=O)[C@@H](NC(=O)[C@H](CCC(=O)Nc1ccc([N+](=O)[O-])cc1)NC(=O)[C@@H](N)CCCCN)C(C)C)C(C)C)C(=O)NCC(N)=O; assay: as above; conditions: other: AMC substrates; λEX = 380 nm, λEm = 460 nm, room temperature; enzyme ca. 0,893 Einheiten/ml
Method: as §1, §2, §3

[3] = substrate: CC[C@H](C)[C@H](NC(=O)[C@@H](NC(=O)[C@H](CCCNC(=N)N)NC(=O)[C@@H](NC(=O)[C@H](CCC(=O)Nc1ccc([N+](=O)[O-])cc1)NC(=O)[C@@H](N)Cc1ccc(O)cc1)C(C)C)C(C)C)C(=O)NCC(N)=O; assay: Cleavage of pNA substrates by activated factor XIIIa, absorbance at 405 nm (Michaelis-Menten kinetics and pre-test); conditions: other: pNA substrates, 37 °C, enzyme ca. 1,25 Einheiten/ml, varied substrate concentration, pH 7.5
Method: (§4) 250 Einheiten lyophilisiertes Fibrogammin HS (Aventis Behring) wurden in 4 ml Wasser gelöst, als 100 µl Portionen aliquotiert und bei -80 °C gelagert. 100 µl dieser Lösung enthalten 6,25 Einheiten FXIII.
(§5) 100 µl des aliqotierten Fibrogammins (entspricht 6,25 Einheiten) wurden mit 500 µl TBS-Puffer (50 mM Tris-HCl, pH 7,5 in 0,9% (w/v) NaCl), 360 µl einer 0.9 % NaCl-Lösung, 10 µl einer 1 M CaCl2-Lösung und 20 µl einer Thrombinlösung (Rinderthrombin: 14,2 U in 20 µl) versetzt. Der Ansatz wurde 20 min bei 37 °C inkubiert, danach wurden 10 µl einer Lösung mit rekombinantem Hirudin zugesetzt (r-Hirudin: HBW 023 mit 13442 IU mg^-1, Stammlösung des r-Hirudin = 1 mg/ml). Dieser Aktivierungsansatz besitzt ein Gesamtvolumen von 1 ml, der aktivierte Faktor Xllla wurde bei 37 °C aufbewahrt und für die folgenden kinetischen Messungen verwendet.
(§6) Die Messungen wurden bei 405 nm und 37 °C mit einem Microplate Reader der Firma Labsystems (iEMS Reader MF) mit folgendem Messansatz durchgeführt: • 150 µl TBS-Puffer (siehe oben, der Puffer kann gegebenenfalls auch eine Aminkomponente enthalten, beispielsweise H-Gly-Ethylester oder H-Gly-Gly-Ethylester oder ein anderes Amin, falls vorhanden ist die finale Konzentration des Amins im Messansatz 2,5 mM oder höher) • 50 µl Substratlösung • 50 µl Enzymlösung (im Messansatz ca. 1,25 Einheiten/ml)
(§7) Sämtliche Lösungen wurden vor Benutzung bei 37 °C aufbewahrt, vor Zugabe der FXllla-Lösung wurde die Mikroreadermessplatte nochmals 5 min bei 37 °C im Messgerät temperiert. Nach Zugabe der FXllla-Lösung wurde die Substratspaltung gestartet und die Änderung der Absorption bei 405 nm gemessen. Für einen Vortest wurde eine konstante Substratkonzentration verwendet. […] Wir haben vermutet, dass vor allem die Aminosäuren N- und C-terminal des Glu(pNA)-Restes wichtig für die Substraterkennung sind, deshalb wurde das N-terminale Glycin und das an dritter Position befindliche Serin innerhalb der Berichromsequenz durch andere Aminosäurereste ersetzt. Durch den Vortest wurde festgestellt, dass einige dieser Substrate deutlich schneller als die Derivate S1 und S2 gespalten werden. Für ausgewählte Substrate wurden die Substratkonzentrationen im Messansatz variiert und die bestimmten Umsatzgeschwindigkeiten als Funktion der Substratkonzentration entsprechend der Michaelis-Menten-Gleichung v=Vmax·[S]/(Km+[S]) aufgetragen und somit die kinetischen Konstanten Km und Vmax bestimmt, wobei Vmax in der Einheit Absorptionsänderung bei 405 nm/s erhalten wurde. Dies ist in Fig. 1 und Fig. 2 gezeigt.

[4] = substrate: CC[C@H](C)[C@H](NC(=O)[C@@H](NC(=O)[C@H](CCCCN)NC(=O)[C@@H](NC(=O)[C@H](CCC(=O)Nc1ccc([N+](=O)[O-])cc1)NC(=O)[C@@H](N)Cc1ccc(O)cc1)C(C)C)C(C)C)C(N)=O; assay: as above; conditions: other: pNA substrates, 37 °C, enzyme ca. 1,25 Einheiten/ml, varied substrate concentration, pH 7.5
Method: as §4, §5, §6, §7

[5] = substrate: CC[C@H](C)[C@H](NC(=O)[C@H](CCC(=O)Nc1ccc([N+](=O)[O-])cc1)NC(=O)[C@@H](N)Cc1ccc(O)cc1)C(=O)N[C@@H](CCCCN)C(=O)N[C@H](C(=O)N[C@H](C(=O)NCC(N)=O)[C@@H](C)CC)C(C)C; assay: as above; conditions: other: pNA substrates, 37 °C, enzyme ca. 1,25 Einheiten/ml, varied substrate concentration, pH 7.5
Method: as §4, §5, §6, §7

[6] = substrate: CC[C@H](C)[C@H](NC(=O)[C@@H](NC(=O)[C@H](CCCCN)NC(=O)[C@@H](NC(=O)[C@H](CCC(=O)Nc1ccc([N+](=O)[O-])cc1)NC(=O)[C@@H](N)Cc1ccc(O)cc1)C(C)C)C(C)C)C(=O)NCC(N)=O; assay: as above; conditions: other: pNA substrates, 37 °C, enzyme ca. 1,25 Einheiten/ml, varied substrate concentration, pH 7.5
Method: as §4, §5, §6, §7

B1: Faktor XIIIa (Homo sapiens) (protein)
chain: GVNLQEFLNVTSVHLFKERWDTNKVDHHTDKYENNKLIVRRGQSFYVQIDFSRPYDPRRDLFRVEYVIGRYPQENKGTYIPVPIVSELQSGKWGAKIVMREDRSVRLSIQSSPKCIVGKFRMYVAVWTPYGVLRTSRNPETDTYILFNPWCEDDAVYLDNEKEREEYVLNDIGVIFYGEVNDIKTRSWSYGQFEDGILDTCLYVMDRAQMDLSGRGNPIKVSRVGSAMVNAKDDEGVLVGSWDNIYAYGVPPSAWTGSVDILLEYRSSENPVRYGQCWVFAGVFNTFLRCLGIPARIVTNYFSAHDNDANLQMDIFLEEDGNVNSKLTKDSVWNYHCWNEAWMTRPDLPVGFGGWQAVDSTPQENSDGMYRCGPASVQAIKHGHVCFQFDAPFVFAEVNSDLIYITAKKDGTHVVENVDATHIGKLIVTKQIGGDGMMDITDTYKFQEGQEEERLALETALMYGAKKPLNTEGVMKSRSNVDMDFEVENAVLGKDFKLSITFRNNSHNRYTITAYLSANITFYTGVPKAEFKKETFDVTLEPLSFKKEAVLIQAGEYMGQLLEQASLHFFVTARINETRDVLAKQKSTVLTIPEIIIKVRGTQVVGSDMTVTVEFTNPLKETLRNVWVHLDGPGVTRPMKKMFREIRPNSTVQWEEVCRPWVSGHRKLIASMSSDSLRHVYGELDVQIQRRPSM
notes: Aktivierung des Zymogens FXIII zu Faktor XIIIa; purchased Aventis Behring Fibrogammin HS
Km [1]: 41 µM
Km [2]: 30 µM
Km [3]: 49 µM
Km [4]: 86 µM
Km [5]: 78 µM
Km [6]: 40 µM
